Among the data in patent publication US20230106715A1 (BIOSION, published 2023) are EC50 and IC50 values, retold here.

Test [1] concerns the target T1, human Siglec15 on human-siglec15-2D3-1E1 cells (human, UniProt Q6ZMC9 20-328).
T1 construct: whole, on cells; Transfected HEK-293 cells; also called cell surface human Siglec15
T1 sequence (looked up): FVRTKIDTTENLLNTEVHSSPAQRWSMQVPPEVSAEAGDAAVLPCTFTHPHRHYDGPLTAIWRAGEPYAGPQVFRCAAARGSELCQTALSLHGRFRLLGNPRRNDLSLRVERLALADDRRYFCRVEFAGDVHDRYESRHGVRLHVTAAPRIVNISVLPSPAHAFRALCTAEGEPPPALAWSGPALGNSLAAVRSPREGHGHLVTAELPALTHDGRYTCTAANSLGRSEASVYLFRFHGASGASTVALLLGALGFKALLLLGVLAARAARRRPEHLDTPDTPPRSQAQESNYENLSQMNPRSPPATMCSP
In words: cell based binding FACS on human-siglec15-2D3-1E1 cells. As to the method: The binding activities of the anti-Siglec15 antibodies to cell surface Siglec15 were tested by flow cytometry (FACS), using in-house prepared human-siglec15-2D3-1E1 cells expressing human Siglec15 (amino acid residues Met1-Pro328 of uniprot #Q6ZMC9) on cell membranes. The human-siglec15-2D3-1E1 cells were prepared by transfecting HEK-293 cells (ATCC #CRL-1573) with pCMV-T-P plasmids inserted with human Siglec15 coding sequence between EcoRI and XbaI sites, following the instruction of lipofectamine 3000 transfection reagent (Thermo Fisher). The human-siglec15-2D3-1E1 cells were harvested from cell culture flasks, washed twice and re-suspended in phosphate buffered saline (PBS) containing 2% v/v Fetal Bovine Serum (FACS buffer). 2×10⁵ cells per well in 96 well-plates were incubated in 100 μL serially diluted anti-Siglec15 antibodies or controls (starting at 66.67 nM, 5-fold serial dilution) in FACS buffer for 40 minutes on ice. […] Following a 40-minute incubation at 4° C. in dark, cells were washed three times and re-suspended in FACS buffer. Fluorescence was measured using a Becton Dickinson FACS Canto II-HTS equipment. Data was analyzed using Graphpad Prism software and EC₅₀ values were reported.

Test [2] has as its target T2, recombinant human Siglec15-his protein (human, UniProt Q6ZMC9 20-263).
T2 construct: In house made; Biotin-labeled in the capture ELISA
T2 sequence: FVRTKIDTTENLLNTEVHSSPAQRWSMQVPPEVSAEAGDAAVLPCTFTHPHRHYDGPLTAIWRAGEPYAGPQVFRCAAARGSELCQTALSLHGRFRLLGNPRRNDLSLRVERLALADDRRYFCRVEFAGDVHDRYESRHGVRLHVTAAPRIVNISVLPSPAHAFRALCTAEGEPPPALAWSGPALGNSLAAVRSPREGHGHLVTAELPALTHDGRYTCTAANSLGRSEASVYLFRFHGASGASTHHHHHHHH
Kind of test: capture ELISA, captured antibody, biotin-labeled human Siglec15-his in solution. As to the method: Briefly, 96-well plates were coated with 100 μl of 2 μg/ml AffiniPure Goat Anti-Human IgG F(ab′)₂ fragment specific (Jackson Immuno Research, Cat #109-005-097) in PBS for 2 hours at 37° C. Plates were washed once with wash buffer (PBS+0.05% v/v Tween-20, PBST) and then blocked with 200 μl blocking buffer (5% w/v non-fatty milk in PBST) overnight at 4° C. Plates were washed 4 times and respectively incubated with 100 μl serially diluted anti-Siglec15 antibodies of the disclosure, the benchmark and hIgG (human immunoglobulin (pH4) for intravenous injection, Hualan Biological Engineering Inc.), 5-fold dilution in 2.5% w/v non-fatty milk in PBST starting at 66.7 nM, for 40 minutes at 37° C., and then washed 4 times again. […] The reaction was stopped in 4 minutes at room temperature with 50 μl/well 1M H₂SO₄, and the absorbance of each well was read on a microplate reader using dual wavelength mode with 450 nm for TMB and 630 nm as the reference wavelength, then the OD (450-630) values were plotted against antibody concentration. Data was analyzed using Graphpad Prism software and EC₅₀ values were reported.

Test [3] concerns the target T3, human Siglec15-Fc protein (human).
T3 construct: In house made; also called recombinant human Siglec15 protein with human IgG1 Fc at the C-terminus
Kind of test: competitive ELISA: biotin-labeled human Siglec15-Fc in solution, competitor coated benchmark; curve levels off at OD about 0.55, inhibition incomplete. The protocol:
The abilities of the anti-Siglec15 antibodies of the disclosure to block benchmark-human Siglec15 binding were measured in a competitive ELISA assay. Briefly, the benchmark was coated on 96-well micro plates at 2 μg/mL in PBS, 100 μl per well, and incubated for 2 hours at 37° C. Then plates were washed once with wash buffer, and blocked with 5% w/v non-fatty milk in PBST overnight at 4° C. The next day, the anti-Siglec15 antibodies of the disclosure or controls were diluted with biotin labeled human Siglec15-Fc protein (prepared in-house with SEQ ID NO: 19, 37 ng/ml in PBST with 2.5% w/v non-fatty milk), starting at 80 nM with a 4-fold serial dilution, and incubated at room temperature for 40 minutes. After plate washing 4 times, the antibody/Siglec15-Fc mixtures were added to benchmark coated plates, 100 μl per well. After incubation at 37° C. for 40 minutes, plates were washed 4 times again using wash buffer. Then the plates were added and incubated with 100 μl/well streptavidin conjugated HRP for 40 minutes at 37° C. […] Finally, TMB was added and the reaction was stopped using 1M H₂SO₄, and the absorbance of each well was read on a microplate reader using dual wavelength mode with 450 nm for TMB and 630 nm as the reference wavelength, then the OD (450-630) values were plotted against antibody concentration. Data was analyzed using Graphpad Prism software and IC₅₀ values were reported.

B1: anti-Siglec15 benchmark (ch5G12) (antibody, human IgG1, kappa, V domains shown)
VH: QVQLQQPGAELVKPGASVKMSCKASGYTFTSYWITWVIQRPGQGLEWIGDIYCGSDTMHYNEKFKNKATLTVDTSSSTAYMQLSSLTSEDSAVYYCARWWDYGSSYDYFDYWGQGTTLTVSS
VL: DIKMTQSPSSMYASLGERVTITCKASQDINSYLSWFQQKPGKSPKTLIYRANRLVDGVPSRFSGSGSGQDYSLTISSLEYEDMGIYYCLQYDEFPYTFGGGTKLEIKR
notes: ch5G12 (US 20190202912A1); also called BM; Siglec15-ch5G9
As for B1, the EC50 (as a rule, the concentration giving half of the maximal effect) in test [1] was 19.8 nM; in test [2], 2.11 nM.

B2: A1E10G7H9 (antibody, V domains shown)
VH: QVQLQESGPGLVKPSGTLSLTCAVSGGSISSSNWWHWVRQPPGKGLEWIGEIYHSGNTNYKPSLKSRVTISVDKSKNQFSLKLSSVTAADTAVYYCARDEGNGWSNAFDIWGQGTMVTVSS
VL: ENVLTQSPGTLSLSPGERVTLSCRASQSVSSSYLAWYQQKPGQAPRFLIYGASGGATGIPDRFSGSGSGTDFTLTISRLEPEDFAVYYCQQYGSSPITFGQGTRLEIK
notes: Fully human antibody from transgenic mouse hybridoma
Regarding B2, in test [3], the IC50 (commonly the concentration needed to halve the response being measured) is about 0.0777 nM.
